We go through 3 molecules from paper PMC11230438.

Sequences and labels used below:
B1: N-TIMP2-PAT100 (protein)
chain: CSCSPVHPQQAFCNADVVIRAKAVSEKEVDSGNDIYGNPIKRIQYEIKQIKMFKGPEDIEFIYTAPSSAVCGVSLDVGGKKEYLIAGKAEGDGKMHITLCDFIVPWDTLSTTQKKSLNHRYQMGCETAPAAPATPAPTAPTPTPAAPAPTTPATPAPTPAAPAPAPTAPTAPAAPTAPATPAAPTTPTPTTPTPATPTPTAPAPATPTTPTPTAPAAPTPAPTTPA
B2: N-TIMP2 (WT N-terminal domain of TIMP2 containing internal FLAG-tag, c-myc-tag and His-tag) (domain or fragment)
chain: CSCSPVHPQQAFCNADVVIRAKAVSEKEVDSGNDIYGNPIKRIQYEIKQIKMFKGPEDIEFIYTAPSSAVCGVSLDVGGKKEYLIAGKAEGDGKMHITLCDFIVPWDTLSTTQKKSLNHRYQMGCE
B3: N-TIMP2-PAT200 (protein)
chain: CSCSPVHPQQAFCNADVVIRAKAVSEKEVDSGNDIYGNPIKRIQYEIKQIKMFKGPEDIEFIYTAPSSAVCGVSLDVGGKKEYLIAGKAEGDGKMHITLCDFIVPWDTLSTTQKKSLNHRYQMGCEATPTPAPTAPTTPTPTPTTPAPTTPTTPATPAPTTPATPAPTPATPTPAAPAPTTPTPAAPAPTPATPTAPAPTTPTAPTAPTPATPATPAAPTPTPTTPTTPTAPAAPTPTAPTAPAPTAPTAPTAPATPAAPATPTPAPTAPATPTPAAPTTPTAPTPTPTPAPATPAAPAPTPATPAAPTTPAAPTAPAAPTTPTPT

This assay has as its target high-stability mutant of the MMP-9 catalytic domain lacking the fibronectin-like domain (MMP9CAT*) (human) (UniProt P14780). Nature of the assay: enzymatic activity inhibition assay.
By Ki is commonly meant a measure of affinity in units of concentration, obtained from inhibition or displacement. Low readings indicate a stronger hold on the target, high ones a looser hold on the target. In the case of B1, the Ki stood at 240 pM.

The molecule B2 yielded an inhibition constant Ki of 320 pM.

B3: the inhibition constant Ki came out at 590 pM.
